Results as given in patent US20240132578A1.

Assays:
Assay in all cases: cell-based or functional assay
[1] = molecular target: HIV-1 92RW020 envelope (Env) on pseudovirus (HIV-1)
[2] = molecular target: HIV-1 93UG077 envelope (Env) on pseudovirus (HIV-1)
[3] = molecular target: HIV-1 CMU02 envelope (Env) on pseudovirus (HIV-1)
[4] = molecular target: HIV-1 Env of isolate 93TH305, clade B (HIV-1)
[5] = molecular target: HIV-1 Env of isolate MGRM-A-010 (clade A pseudovirus) (HIV-1)
[6] = molecular target: HIV-1 Env of isolate MGRM-A-013 (clade A pseudovirus) (HIV-1)
[7] = molecular target: HIV-1 Env of pseudovirus MGRM-F1-016 (clade F) (HIV-1)
[8] = molecular target: HIV-1 MGRM-AE-003 Env (pseudovirus) (HIV-1)
[9] = molecular target: HIV-1 MGRM-AE-004 Env (pseudovirus) (HIV-1)
[10] = molecular target: HIV-1 MGRM-AG-002 Env (pseudovirus) (HIV-1)
[11] = molecular target: HIV-1 MGRM-AG-003 Env (pseudovirus) (HIV-1)
[12] = molecular target: HIV-1 MGRM-AG-008 Env (pseudovirus) (HIV-1)
[13] = molecular target: HIV-1 MGRM-AG-013 Env (pseudovirus) (HIV-1)
[14] = molecular target: HIV-1 NL43 envelope (Env) on pseudovirus (HIV-1)
[15] = molecular target: HIV-1 envelope glycoprotein (Env) of isolate LAVI_C3 (HIV-1)
[16] = molecular target: HIV-1 envelope glycoprotein (Env) of isolate MGRM-C-009 (HIV-1)
[17] = molecular target: HIV-1 envelope glycoprotein (Env) of isolate MGRM-C-015 (HIV-1)

1443_C16 (PG16) (TCN-116) (antibody), sequence (VH): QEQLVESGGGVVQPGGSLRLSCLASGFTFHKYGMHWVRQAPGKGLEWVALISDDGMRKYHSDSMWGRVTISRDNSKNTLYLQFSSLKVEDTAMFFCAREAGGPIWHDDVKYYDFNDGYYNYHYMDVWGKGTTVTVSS
1443_C16 (PG16) (TCN-116) (antibody), sequence (VL): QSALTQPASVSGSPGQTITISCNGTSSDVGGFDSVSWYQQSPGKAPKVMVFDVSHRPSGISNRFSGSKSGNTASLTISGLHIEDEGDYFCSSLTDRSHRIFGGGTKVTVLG

Substance | neutralization IC50 [1] [µg/mL] | neutralization IC50 [2] [µg/mL] | neutralization IC50 [3] [µg/mL] | IC50 (µg/ml), pseudovirus neutralization [4] [µg/mL] | IC50 (µg/ml), pseudovirus neutralization [5] [µg/mL] | IC50 (µg/ml), pseudovirus neutralization [6] [µg/mL] | IC50 [7] [µg/mL] | IC50 (µg/ml), pseudovirus neutralization [8] [µg/mL] | IC50 (µg/ml), pseudovirus neutralization [9] [µg/mL] | IC50 (µg/ml), pseudovirus neutralization [10] [µg/mL] | IC50 (µg/ml), pseudovirus neutralization [11] [µg/mL] | IC50 (µg/ml), pseudovirus neutralization [12] [µg/mL] | IC50 (µg/ml), pseudovirus neutralization [13] [µg/mL] | neutralization IC50 [14] [µg/mL] | IC50 (µg/ml), pseudovirus neutralization [15] [µg/mL] | IC50 (µg/ml), pseudovirus neutralization [16] [µg/mL] | IC50 (µg/ml), pseudovirus neutralization [17] [µg/mL]
2F5 (antibody) | 3.37 | 4.45 | 0.38 | 7.61 | 20.8 | 0.66 | 21.5 | 0.24 | 0.98 | 0.54 | 0.14 | 0.54 | 1.79 | 2.41 | > 50 | > 50 | > 50
1443_C16 (PG16) (TCN-116) (antibody) | 0.004 | > 50 | > 50 | 19.3 | 0.004 | 0.09 | 1.12 | 0.03 | 0.002 | 0.03 | > 50 | 0.002 | 0.31 | < 0.0025 | 9.55 | > 50 | 0.26
